Changes are numbered by the printed parent chain. In names and notes the source's numbering stands. Blank lines part the entries; values can stand above or below the binder they belong to.
Legend:
Test in all cases: FRET or BRET
Gα13 K94E/R97E = target: T1, Gα13 K94E/R97E (human, UniProt Q14344 1-377, K94E | R97E)
T1 sequence (looked up): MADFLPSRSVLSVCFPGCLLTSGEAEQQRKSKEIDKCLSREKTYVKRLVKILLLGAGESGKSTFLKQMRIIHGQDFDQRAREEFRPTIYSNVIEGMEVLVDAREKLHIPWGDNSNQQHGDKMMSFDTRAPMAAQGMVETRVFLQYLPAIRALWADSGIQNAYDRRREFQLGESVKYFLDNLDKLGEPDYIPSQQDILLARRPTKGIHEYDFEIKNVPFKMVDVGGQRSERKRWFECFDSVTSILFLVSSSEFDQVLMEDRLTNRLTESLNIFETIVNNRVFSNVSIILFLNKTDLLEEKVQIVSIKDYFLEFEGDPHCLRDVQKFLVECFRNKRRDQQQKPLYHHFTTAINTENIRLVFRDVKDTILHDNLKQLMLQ

Gα13 R279A = target: T2, Gα13 R279A (human, UniProt Q14344 1-377, R279A)
T2 sequence (looked up): T1 sequence (looked up) with E94K, E97R, R279A

Gα13 P202A = target: T3, Gα13 P202A (human, UniProt Q14344 1-377, P202A)
T3 sequence (looked up): T1 sequence (looked up) with E94K, E97R, P202A

[1] = target: Gα13 with mutations in three helical domain residues
Gα13 R201V (human) = Gα13 R201V (human) (UniProt Q14344)
Gα12 = target: T4, Gα12 (human, UniProt Q03113 1-381)
T4 sequence: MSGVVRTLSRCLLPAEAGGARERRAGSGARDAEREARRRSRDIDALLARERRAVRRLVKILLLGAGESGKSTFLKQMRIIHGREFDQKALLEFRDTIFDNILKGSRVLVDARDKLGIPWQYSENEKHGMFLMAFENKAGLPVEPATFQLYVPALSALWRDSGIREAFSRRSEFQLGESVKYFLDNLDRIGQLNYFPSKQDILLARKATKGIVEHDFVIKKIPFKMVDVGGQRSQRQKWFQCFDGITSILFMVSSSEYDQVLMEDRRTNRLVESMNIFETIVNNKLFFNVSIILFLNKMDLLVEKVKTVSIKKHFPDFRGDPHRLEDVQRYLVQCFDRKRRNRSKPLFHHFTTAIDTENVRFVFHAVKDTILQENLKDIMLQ

Gα13 = target: T5, Gα13 (human, UniProt Q14344 1-377)
T5 sequence: T1 sequence (looked up) with E94K, E97R

B1: p115 RhoGEF (21-244)-RlucII (domain or fragment, UniProt Q92888 21-244, looked up)
chain: VSIIGAEDEDFENELETNSEEQNSQFQSLEQVKRRPAHLMALLQHVALQFEPGPLLCCLHADMLGSLGPKEAKKAFLDFYHSFLEKTAVLRVPVPPNVAFELDRTRADLISEDVQRRFVQEVVQSQQVAVGRQLEDFRSKRLMGMTPWEQELAQLEAWVGRDRASYEARERHVAERLLMHLEEMQHTISTDEEKSAAVVNAIGLYMRHLGVRTKSGDKKSGRNF
percent reduction of recruitment against WT Gα13 (Gα13 K94E/R97E): 81% | percent reduction of recruitment against WT Gα13 (Gα13 R279A): 50% | percent reduction of recruitment against WT Gα13 (Gα13 P202A): 37% | percent reduction of recruitment against WT Gα13 [1]: 27 to 81% | percent reduction of recruitment against WT Gα13 (Gα13 R201V (human)): 26%

B5: PDZ RhoGEF-RlucII sensor (domain or fragment, UniProt O15085 281-483, looked up)
chain: QGVDQSPKPLIIGPEEDYDPGYFNNESDIIFQDLEKLKSRPAHLGVFLRYIFSQADPSPLLFYLCAEVYQQASPKDSRSLGKDIWNIFLEKNAPLRVKIPEMLQAEIDSRLRNSEDARGVLCEAQEAAMPEIQEQIHDYRTKRTLGLGSLYGENDLLDLDGDPLRERQVAEKQLAALGDILSKYEEDRSAPMDFALNTYMSHA
percent reduction of recruitment against WT Gα13 (Gα13 K94E/R97E): 71% | percent reduction of recruitment against WT Gα13 (Gα13 R279A): 50%

Other lines, results leading:

percent reduction of recruitment against WT p115RhoGEF sensor (Gα12): ~50% | percent reduction of recruitment against WT p115RhoGEF sensor (Gα13): ~50%
B2: p115 RhoGEF (21-244)-RlucII E27A (domain or fragment)
chain: B1 chain with E7A

percent reduction of recruitment against WT p115RhoGEF sensor (Gα12): ~50% | percent reduction of recruitment against WT p115RhoGEF sensor (Gα13): ~50%
B3: p115 RhoGEF (21-244)-RlucII I23F (domain or fragment)
chain: B1 chain with I3F

percent reduction of recruitment against WT p115RhoGEF sensor (Gα12): ~50% | percent reduction of recruitment against WT p115RhoGEF sensor (Gα13): ~50%
B4: p115 RhoGEF (21-244)-RlucII I23A (domain or fragment)
chain: B1 chain with I3A

— article doi:10.1101/2024.12.28.630591 (bioRxiv, 2024)
